In publication PMC4197845 (International journal of cancer. Journal international du …, 2011):

Tests used:
[1] = target: EGFR as used for SPR (BIAcore) (Homo sapiens, UniProt P00533); test: SPR
[2] = target: EGFR extra-cellular domain (EGFR-ECD; a.a. 1-614) fused to a human IgG1 Fc; test: ELISA

B1: 38G7 nanobody (VHH)
VHH: EVQLVESGGGLVQAGGSLRLSCAASGRTFSSYVMGWFRQATGKEREFVATIAWDSGSTYYADSVKGRFTISRDNAKNTVHLQMNSLKPEDTAVYYCAASYNVYYNNYYYPISRDEYDYWGQGTQVTVSS
Work on B1 yielded a koff [1] of 0.0002 s⁻¹ and an IC50 [2] of 10 nM.
